We go through 4 molecules from patent US20210373004A1 (BIOASTER, published 2021).

The target of test [1] is T1, Flag-mCherry-ColErw-Cys-6His (Pectobacterium carotovorum). Briefly: EIA 8 plex n° 1: colicin coated at 100 nM, Im-RLuc8 alone at 100 nM, luciferase signal (FIG. 3, light grey bars).
Test [2] deals with T1, Flag-mCherry-ColErw-Cys-6His. Kind of test: EIA 8 plex n° 2: colicin coated at 100 nM, Im-RLuc8 alone at 100 nM, luciferase signal (FIG. 4, light grey bars).
Test [3] concerns the target T2, Flag-mCherry-ColLeaf-Cys-6His (Pseudomonas sp Leaf83). Briefly: EIA 8 plex n° 2: colicin coated at 100 nM, Im-RLuc8 at 100 nM, luminescence; light bar alone, dark bar with the 7 other unfused Im proteins.
Test [4] concerns the target T3, Flag-EmGFP-ColE7-6His (Escherichia coli).
T3 construct: also called Colicin E7
Briefly: EIA 8 plex n° 1: colicin coated at 100 nM, Im-RLuc8 at 100 nM, luminescence; light bar alone, dark bar with the 7 other unfused Im proteins.

For test [5], the target named is T4, Flag-mCherry-ColE8-6His (Escherichia coli).
T4 construct: also called Colicin E8
Described as above.

For test [6], the target named is T5, Flag-mCherry-ColSyr-Cys-6His (Pseudomonas syringae B728A). Described as above.
Test [7] has as its target T6, Flag-mCherry-ColKhan-Cys-6His (Photorhabdus khanii). The test is described as above.
Test [8] concerns the target T7, Flag-mCherry-ColAP41-Cys-6His (Pseudomonas aeruginosa AP41). The test is described as above.
For test [9], the target named is T8, Flag-mCherry-ColE9-6His (Escherichia coli).
T8 construct: also called Colicin E9
The description is as above.

The target in test [10] is T9, Flag-EmGFP-ColE2-6His (Escherichia coli).
T9 construct: Coated on the plate or sprayed on the membrane; also called Colicin E2
The test is described as above.

The target of test [11] is T2, Flag-mCherry-ColLeaf-Cys-6His. Briefly: EIA 8 plex n° 2: colicin coated at 100 nM, Im-RLuc8 alone at 100 nM, luciferase signal (FIG. 4, light grey bars).
The target in test [12] is T1, Flag-mCherry-ColErw-Cys-6His. Kind of test: EIA 8 plex n° 2: colicin coated at 100 nM, Im-RLuc8 at 100 nM, luminescence; light bar alone, dark bar with the 7 other unfused Im proteins.
Test [13] has as its target T5, Flag-mCherry-ColSyr-Cys-6His. Described as above.
Test [14] concerns the target T6, Flag-mCherry-ColKhan-Cys-6His. Described as above.
The target in test [15] is T7, Flag-mCherry-ColAP41-Cys-6His. The test is described as above.
Test [16] addresses T8, Flag-mCherry-ColE9-6His. The test is described as above.
Test [17] deals with T9, Flag-EmGFP-ColE2-6His. The description is as above.
For test [18], the target named is T7, Flag-mCherry-ColAP41-Cys-6His. Briefly: EIA 8 plex n° 1: colicin coated at 100 nM, Im-RLuc8 alone at 100 nM, luciferase signal (FIG. 3, light grey bars).
The target is the same in test [19]. Briefly: EIA 8 plex n° 2: colicin coated at 100 nM, Im-RLuc8 alone at 100 nM, luciferase signal (FIG. 4, light grey bars).
The target of test [20] is T1, Flag-mCherry-ColErw-Cys-6His. Kind of test: EIA 8 plex n° 1: colicin coated at 100 nM, Im-RLuc8 at 100 nM, luminescence; light bar alone, dark bar with the 7 other unfused Im proteins.
Test [21] addresses T3, Flag-EmGFP-ColE7-6His. Kind of test: EIA 8 plex n° 1: colicin coated at 100 nM, Im-RLuc8 alone at 100 nM, luciferase signal.
Test [22] deals with T5, Flag-mCherry-ColSyr-Cys-6His. Briefly: EIA 8 plex n° 1: colicin coated at 100 nM, Im-RLuc8 alone at 100 nM, luciferase signal (FIG. 3, light grey bars).
For test [23] the target is unchanged. Briefly: EIA 8 plex n° 2: colicin coated at 100 nM, Im-RLuc8 alone at 100 nM, luciferase signal (FIG. 4, light grey bars).

B1: Myc-RLuc8-ImErw-Avitag-6His (other)
chain: MGGEQKLISEEDLGGSASKVYDPEQRKRMITGPQWWARCKQMNVLDSFINYYDSEKHAENAVIFLHGNATSSYLWRHVVPHIEPVARCIIPDLIGMGKSGKSGNGSYRLLDHYKYLTAWFELLNLPKKIIFVGHDWGAALAFHYAYEHQDRIKAIVHMESVVDVIESWDEWPDIEEDIALIKSEEGEKMVLENNFFVETVLPSKIMRKLEPEEFAAYLEPFKEKGEVRRPTLSWPREIPLVKGGKPDVVQIVRNYNAYLRASDDLPKLFIESDPGFFSNAIVEGAKKFPNTEFVKVKGLHFLQEDAPDEMGKYIKSFVERVLKNEQKLPGGSNLKEKLEDYTEAEFISYLKEFFDNPMGLRGKELETHLDSLVEHFDKIVFHPEGNGLIFYPPDERDDSPEGVLNEIKRWRKSQGLPLFKDSKGGSGGSGLNDIFEAQKIEWHELEGGGSHHHHHH
notes: Immunity protein fused to the luciferase RLuc8 as reporter; added in solution; also called ImErw-Rluc8
As for B1, the RLU in test [1] was greater than 2e+06 RLU; in test [2] it was greater than 2.4e+06 RLU. In addition, the binding result in test [3] is “no binding (tested: 100 nM)”; in test [4], “no binding (tested: 100 nM)”; in test [5] it was “no binding (tested: 100 nM)”; in [6], “no binding (tested: 100 nM)”; in test [7], “binds”; in test [8] it was “no binding (tested: 100 nM)”. For the same molecule, the binding result in [9] and in test [10] was “no binding (tested: 100 nM)” throughout.

B2: Avitag-RLuc8-ImLeaf-6His (other)
chain: MGLNDIFEAQKIEWHEGGSGGSGGSASKVYDPEQRKRMITGPQWWARCKQMNVLDSFINYYDSEKHAENAVIFLHGNATSSYLWRHVVPHIEPVARCIIPDLIGMGKSGKSGNGSYRLLDHYKYLTAWFELLNLPKKIIFVGHDWGAALAFHYAYEHQDRIKAIVHMESVVDVIESWDEWPDIEEDIALIKSEEGEKMVLENNFFVETVLPSKIMRKLEPEEFAAYLEPFKEKGEVRRPTLSWPREIPLVKGGKPDVVQIVRNYNAYLRASDDLPKLFIESDPGFFSNAIVEGAKKFPNTEFVKVKGLHFLQEDAPDEMGKYIKSFVERVLKNEQGGGSTAGGGGSKRQFADYTEAEFIAFMEDIFRENEAETDDRLDVLLDQFREITGHPDGTDLIYYCESDAECTPERITQKVKSWRAANGLPGFKSTLEGGGSHHHHHH
notes: Immunity protein fused to the luciferase RLuc8 as reporter; added in solution; also called ImLeaf-Rluc8
B2 yielded an RLU in test [11] greater than 2.4e+06 RLU. For the same molecule, the binding result in test [12], in [13], in test [14], in test [15], in [16] and in test [17] was “no binding (tested: 100 nM)” throughout.

B3: Myc-RLuc8-ImAP41-Avitag-6His (other)
chain: MGGEQKLISEEDLGGSASKVYDPEQRKRMITGPQWWARCKQMNVLDSFINYYDSEKHAENAVIFLHGNATSSYLWRHVVPHIEPVARCIIPDLIGMGKSGKSGNGSYRLLDHYKYLTAWFELLNLPKKIIFVGHDWGAALAFHYAYEHQDRIKAIVHMESVVDVIESWDEWPDIEEDIALIKSEEGEKMVLENNFFVETVLPSKIMRKLEPEEFAAYLEPFKEKGEVRRPTLSWPREIPLVKGGKPDVVQIVRNYNAYLRASDDLPKLFIESDPGFFSNAIVEGAKKFPNTEFVKVKGLHFLQEDAPDEMGKYIKSFVERVLKNEQKLPGGSDIKNNLSDYTESEFLEIIEEFFKNKSGLKGSELEKRMDKLVKHFEEVTSHPRKSGVIFHPKPGFETPEGIVKEVKEWRAANGLPGFKAGLEGGSGGSGLNDIFEAQKIEWHELEGGGSHHHHHH
notes: Immunity protein fused to the luciferase RLuc8 as reporter; added in solution; also called ImAP41-Rluc8
In the case of B3, the RLU in test [18] is greater than 2e+06 RLU; in test [19] it was greater than 2.4e+06 RLU. Moreover, the binding result in test [14], in test [3], in test [20], in test [4], in test [5] and in [6] was “no binding (tested: 100 nM)” each time. Further, the binding result in test [9] and in [10] was “no binding (tested: 100 nM)” in each case.

B4: Myc-RLuc8-ImSyr-Avitag-6His (other)
chain: MGGEQKLISEEDLGGSASKVYDPEQRKRMITGPQWWARCKQMNVLDSFINYYDSEKHAENAVIFLHGNATSSYLWRHVVPHIEPVARCIIPDLIGMGKSGKSGNGSYRLLDHYKYLTAWFELLNLPKKIIFVGHDWGAALAFHYAYEHQDRIKAIVHMESVVDVIESWDEWPDIEEDIALIKSEEGEKMVLENNFFVETVLPSKIMRKLEPEEFAAYLEPFKEKGEVRRPTLSWPREIPLVKGGKPDVVQIVRNYNAYLRASDDLPKLFIESDPGFFSNAIVEGAKKFPNTEFVKVKGLHFLQEDAPDEMGKYIKSFVERVLKNEQKLPGGSIFKEKIEDYTEEEFLEFLKGLSSEYSQLHGDEFIKHMDRSVEHFVKITEHPAQTDVIFYPEEGQEDTPEGILKVIKEWRAKNGKPGFKSGGSGGSGLNDIFEAQKIEWHELEGGGSHHHHHH
notes: Immunity protein fused to the luciferase RLuc8 as reporter; added in solution; also called ImSyr-Rluc8
B4: the RLU in test [21] was greater than 100000 RLU; in test [22] it was greater than 2e+06 RLU; in [23], greater than 2.4e+06 RLU. For the same molecule, the binding result in [14], in [3], in test [20], in [5], in test [9] and in test [10] was “no binding (tested: 100 nM)” throughout.
